Experimental data reported in paper PMC5454376, “Molecular mechanism of Gαi activation by non-GPCR proteins with a Gα-Binding and Activating motif” (Nature Communications, 2017).

B1: Human His-Gαi3 WT [human] / Fluorescein-labelled RGS12 GoLoco peptide (residues 1,185–1,221) [modified: 5,6-carboxyfluorescein coupled to the resin-bound peptide after chain elongation; 5,6-carboxyfluorescein coupled to the … (parent)
chain 1: MGCTLSAEDKAAVERSKMIDRNLREDGEKAAKEVKLLLLGAGESGKSTIVKQMKIIHEDGYSEDECKQYKVVVYSNTIQSIIAIIRAMGRLKIDFGEAARADDARQLFVLAGSAEEGVMTPELAGVIKRLWRDGGVQACFSRSREYQLNDSASYYLNDLDRISQSNYIPTQQDVLRTRVKTTGIVETHFTFKDLYFKMFDVGGQRSERKKWIHCFEGVTAIIFCVALSDYDLVLAEDEEMNRMHESMKLFDSICNNKWFTETSIILFLNKKDLFEEKIKRSPLTICYPEYTGSNTYEEAAAYIQCQFEDLNRRKDTKEIYTHFTCATDTKNVQFVFDAVTDVIIKNNLKECGLY
chain 2: DEAEEFFELISKAQSNRADDQRGLLRKEDLVLPEFLR
B2: Human His-Gαi3 WT [human] / Fluorescein-labelled GIV peptide (residues 1,671–1,701) [modified: 5,6-carboxyfluorescein coupled to the resin-bound peptide after chain elongation; 5,6-carboxyfluorescein coupled to the resin-bound … (parent)
chain 1: B1 chain 1
chain 2: KTGSPGSEVVTLQQFLEESNKLTSVQIKSSS

Variants of: B1
Experiment: fluorescence polarisation
Details: with Fluorescein-labelled RGS12 GoLoco peptide (residues 1,185–1,221) [modified: 5,6-carboxyfluorescein coupled to the resin-bound peptide after chain elongation

| Variant | ratio to parent |
| --- | --- |
| chain 1 MGCTLSAEDKAAVERSKMIDRNLREDGEKAAKEVALLLLGAGESGKSTIVKQMKIIHEDGYSEDECKQYKVVVYSNTIQSIIAIIRAMGRLKIDFGEAARADDARQLFVLAGSAEEGVMTPELAGVIKRLWRDGGVQACFSRSREYQLNDSASYYLNDLDRISQSNYIPTQQDVLRTRVKTTGIVETHFTFKDLYFKMFDVGGQRSERKKWIHCFEGVTAIIFCVALSDYDLVLAEDEEMNRMHESMKLFDSICNNKWFTETSIILFLNKKDLFEEKIKRSPLTICYPEYTGSNTYEEAAAYIQCQFEDLNRRKDTKEIYTHFTCATDTKNVQFVFDAVTDVIIKNNLKECGLY [chain 1 K35A] | 2.79 |
| chain 1 MGCTLSAEDKAAVERSKMIDRNLREDGEKAAKEVKLLLAGAGESGKSTIVKQMKIIHEDGYSEDECKQYKVVVYSNTIQSIIAIIRAMGRLKIDFGEAARADDARQLFVLAGSAEEGVMTPELAGVIKRLWRDGGVQACFSRSREYQLNDSASYYLNDLDRISQSNYIPTQQDVLRTRVKTTGIVETHFTFKDLYFKMFDVGGQRSERKKWIHCFEGVTAIIFCVALSDYDLVLAEDEEMNRMHESMKLFDSICNNKWFTETSIILFLNKKDLFEEKIKRSPLTICYPEYTGSNTYEEAAAYIQCQFEDLNRRKDTKEIYTHFTCATDTKNVQFVFDAVTDVIIKNNLKECGLY [chain 1 L39A] | 3.23 |
| chain 1 MGCTLSAEDKAAVERSKMIDRNLREDGEKAAKEVKLLLLGAGESGKSTIVKQMKIIHEDGYSEDECKQYKVVVYSNTIQSIIAIIRAMGRLKIDFGEAARADDARQLFVLAGSAEEGVMTPELAGVIKRLWRDGGVQACFSRSREYQLNDSASYYLNDLDRISQSNYIPTQQDVLRTRVKTTGIVETHFTFKDLYFKMFDVGGQRSERKKWIHCFEGVTAIIFCVALSDYDLVLAEDEEMNRMHESMKLFDSICNAKWFTETSIILFLNKKDLFEEKIKRSPLTICYPEYTGSNTYEEAAAYIQCQFEDLNRRKDTKEIYTHFTCATDTKNVQFVFDAVTDVIIKNNLKECGLY [chain 1 N256A] | 1.42 |
| chain 1 MGCTLSAEDKAAVERSKMIDRNLREDGEKAAKEVKLLLLGAGESGKSTIVKQMKIIHEDGYSEDECKQYKVVVYSNTIQSIIAIIRAMGRLKIDFGEAARADDARQLFVLAGSAEEGVMTPELAGVIKRLWRDGGVQACFSRSREYQLNDSASYYLNDLDRISQSNYIPTQQDVLRTRVKTTGIVETHFTFKDLYFKMFDVGGQRSERKKWIHCFEGVTAIIFCVALSDYDLVLAEDEEMNRMHESMKLFDSICNEKWFTETSIILFLNKKDLFEEKIKRSPLTICYPEYTGSNTYEEAAAYIQCQFEDLNRRKDTKEIYTHFTCATDTKNVQFVFDAVTDVIIKNNLKECGLY [chain 1 N256E] | 5.78 |
| chain 1 MGCTLSAEDKAAVERSKMIDRNLREDGEKAAKEVKLALLGAGESGKSTIVKQMKIIHEDGYSEDECKQYKVVVYSNTIQSIIAIIRAMGRLKIDFGEAARADDARQLFVLAGSAEEGVMTPELAGVIKRLWRDGGVQACFSRSREYQLNDSASYYLNDLDRISQSNYIPTQQDVLRTRVKTTGIVETHFTFKDLYFKMFDVGGQRSERKKWIHCFEGVTAIIFCVALSDYDLVLAEDEEMNRMHESMKLFDSICNNKWFTETSIILFLNKKDLFEEKIKRSPLTICYPEYTGSNTYEEAAAYIQCQFEDLNRRKDTKEIYTHFTCATDTKNVQFVFDAVTDVIIKNNLKECGLY [chain 1 L37A] | 1.46 |
| chain 1 MGCTLSAEDKAAVERSKMIDRNLREDGEKAAKEVKLLLLGAGESGKSTIVKQMKIIHEDGYSEDECKQYKVVVYSNTIQSIIAIIRAMGRLKIDFGEAARADDARQLFVLAGSAEEGVMTPELAGVIKRLWRDGGVQACFSRSREYQLNDSASYYLNDLDRISQSNYIPTQQDVLRTRVKTTGIVETHFTFKDLYFKMFDVGGQRSERKKWIHCFEGVTAIIFCVALSDYDLVLAEDEEMNRMHESMKLFDDICNNKWFTETSIILFLNKKDLFEEKIKRSPLTICYPEYTGSNTYEEAAAYIQCQFEDLNRRKDTKEIYTHFTCATDTKNVQFVFDAVTDVIIKNNLKECGLY [chain 1 S252D] | 6.17 |

The next lines start with the values.

| ratio to parent | Variant |
| --- | --- |
| 3.43 | chain 1 MGCTLSAEDKAAVERSKMIDRNLREDGEKAAKEVKLLLLGAGESGKSTIVKQMKIIHEDGYSEDECKQYKVVVYSNTIQSIIAIIRAMGRLKIDFGEAARADDARQLFVLAGSAEEGVMTPELAGVIKRLWRDGGVQACFSRSREYQLNDSASYYLNDLDRISQSNYIPTQQDVLRTRVKTTGIVETHFTFKDLYFKMFDVGGQRSERKKWIHCFEGVTAIIFCVALSDYDLVLAEDEEMNRMHESMKLFDSICNNKWATETSIILFLNKKDLFEEKIKRSPLTICYPEYTGSNTYEEAAAYIQCQFEDLNRRKDTKEIYTHFTCATDTKNVQFVFDAVTDVIIKNNLKECGLY [chain 1 F259A] |
| 0.644 | chain 1 MGCTLSAEDKAAVERSKMIDRNLREDGEKAAKEVKLLLLGAGESGKSTIVKQMKIIHEDGYSEDECKQYKVVVYSNTIQSIIAIIRAMGRLKIDFGEAARADDARQLFVLAGSAEEGVMTPELAGVIKRLWRDGGVQACFSRSREYQLNDSASYYLNDLDRISQSNYIPTQQDVLRTRVKTTGIVETHFTFKDLYFKMFDVGGQRSERKKWIHCFEGVTAIIFCVALSDYDLVLAEDEEMNRMHESMKLFDAICNNKWFTETSIILFLNKKDLFEEKIKRSPLTICYPEYTGSNTYEEAAAYIQCQFEDLNRRKDTKEIYTHFTCATDTKNVQFVFDAVTDVIIKNNLKECGLY [chain 1 S252A] |

Variants of: B2
Experiment: fluorescence polarisation
Details: with Fluorescein-labelled GIV peptide (residues 1,671–1,701) [modified: 5,6-carboxyfluorescein coupled to the resin-bound peptide after chain elongation

| ratio to parent | Variant |
| --- | --- |
| 3.59 | chain 1 MGCTLSAEDKAAVERSKMIDRNLREDGEKAAKEVKLLLLGAGESGKSTIVKQMKIIHEDGYSEDECKQYKVVVYSNTIQSIIAIIRAMGRLKIDFGEAARADDARQLFVLAGSAEEGVMTPELAGVIKRLWRDGGVQACFSRSREYQLNDSASYYLNDLDRISQSNYIPTQQDVLRTRVKTTGIVETHFTFKDLYFKMFDVGGQRSERKKWIHCFEGVTAIIFCVALSDYDLVLAEDEEMNRMHESMKLFDSICNNKFFTETSIILFLNKKDLFEEKIKRSPLTICYPEYTGSNTYEEAAAYIQCQFEDLNRRKDTKEIYTHFTCATDTKNVQFVFDAVTDVIIKNNLKECGLY [chain 1 W258F] |
